Results reported in patent publication CN117327176A (NANJING RONGJIEKANG BIOTECHNOLOGY CO LTD, dated 2024).
Changes are numbered by the printed parent chain.

B1: 单域抗体 23G12 (VHH, E. coli crude extract) (VHH)
VHH: ESGGGSVQAGGSLRLSCATSRFTYGSACMGWFRQSPGKEREQVAGIAMGVVTYYADSVKGRFTISQDNGKNTVDLQMDNLKPEDTAMYYCATGPAHYKCYSASGGRYNYWGQGTQVTVSS
notes: Expressed from pMECS in E. coli and detected through an HA tag
B2: 单域抗体 1A6 (VHH, E. coli crude extract) (VHH)
VHH: B1 VHH with F22Y, A27S, G30A, T92A, A95P, A102V
notes: as for B1
B3: 单域抗体 1A7 (VHH, E. coli crude extract) (VHH)
VHH: B1 VHH with S20P, F22Y, S26T, A27S, K38Y, E39Q, T92A
notes: as for B1
B4: 单域抗体 1D1 (VHH, E. coli crude extract) (VHH)
VHH: B1 VHH with A9V, N108S, Y109D
notes: as for B1
B5: 单域抗体 2D10 (VHH, E. coli crude extract) (VHH)
VHH: B1 VHH with E83D
notes: as for B1
B6: 单域抗体 2G5 (VHH, E. coli crude extract) (VHH)
VHH: B1 VHH with K98N
notes: as for B1
B7: 单域抗体 4B2 (VHH, E. coli crude extract) (VHH)
VHH: B1 VHH with F22Y, T92A, K98L, N108T, Y109S
notes: as for B1
B8: 单域抗体 4F3 (VHH, E. coli crude extract) (VHH)
VHH: B1 VHH with F22Y, A27S, G69N, T92S, A95P
notes: as for B1
B9: 单域抗体 21H6 (VHH, E. coli crude extract) (VHH)
VHH: B1 VHH with F22W, S26T, K59E, G69E
notes: as for B1
B10: 单域抗体 27H4 (VHH, E. coli crude extract) (VHH)
VHH: B1 VHH with Q34H, S35A, A102P
notes: as for B1
B11: 单域抗体 214D11 (VHH, E. coli crude extract) (VHH)
VHH: B1 VHH with N108D, Y109A
notes: as for B1
B12: 单域抗体 1B7 (VHH, E. coli crude extract) (VHH)
VHH: ESGGGSVQAGGSLRLSCTTSGYTYSSNCIGWFRQAPGKEREEIATISRVGEITFYADSVKGRFTISQDNTETTVFLQMNSLKPEDTAVYYCAASPPTYGGCPTRSRDYDKWGQGTQVTVSS
notes: as for B1
B13: 单域抗体 1F3 (VHH, E. coli crude extract) (VHH)
VHH: ESGGGSVQAGGSLRLSCATSTSRFTYGSACMGWFRQSPGKEREQVAGIAMGVVTYYADSVKGRFTISQDNGKNTVDLQMDNLKPEDTAMYYCAAGPAHYNCYSASGGRYNYWGQGTQVTVSS
notes: as for B1
B14: 单域抗体 2H3 (VHH, E. coli crude extract) (VHH)
VHH: B13 VHH with N100K, Y111I
notes: as for B1
B15: 单域抗体 212C7 (VHH, E. coli crude extract) (VHH)
VHH: B13 VHH with S6L, A9P
notes: as for B1
B16: 单域抗体 1F9 (VHH, E. coli crude extract) (VHH)
VHH: ESGGGSVQAGGSLRLSCATSRYTYNCMGWFRQSPGKEREQVAGIAMGVVTYYADSVKGRFTISQDNGKNTVDLQMDNLKPEDTAMYYCAAGPAHYKCYSPSGGRYNYWGQGTQVTVSS
notes: as for B1
B17: 单域抗体 1H5 (VHH, E. coli crude extract) (VHH)
VHH: B16 VHH with S6L, A9P
notes: as for B1
B18: 单域抗体 4A1 (VHH, E. coli crude extract) (VHH)
VHH: B16 VHH with A90S, A93P, P100A
notes: as for B1

Target: T1, 人源TSLP蛋白 (Thymic stromal lymphopoietin) (human, UniProt Q969D9 29-159)
T1 construct: also called 人源重组TSLP蛋白; TSLP重组蛋白
Test: ELISA of E. coli crude extract on coated TSLP, anti-HA HRP; positive if OD more than 5 times the control well

Row | Binder | binding result
1 | B1 | binds
2 | B2 | binds
3 | B3 | binds
4 | B4 | binds
5 | B5 | binds
6 | B6 | binds
7 | B7 | binds
8 | B8 | binds
9 | B9 | binds
10 | B10 | binds
11 | B11 | binds
12 | B12 | binds
13 | B13 | binds
14 | B14 | binds
15 | B15 | binds
16 | B16 | binds
17 | B17 | binds
18 | B18 | binds
